{
  "source": "the Human Domainome abundance scans (Beltran et al. 2025)",
  "parents": {"B1": {"name": "POU domain, class 6, transcription factor 2, residues 609 to 663; numbered along this chain, P78424 (parent)", "chain": "KRRTSFTPQALEILNAHFEKNTHPSGQEMTEIAEKLNYDREVVRVWFCNKRQALK"}},
  "note": "± gives the uncertainty stated by the source.",
  "data": [
    {"variants_of": "B1", "assay": "abundance fitness (aPCA) (normalised: wild type 0, dead -1); higher = more abundant; growth selection in yeast, the domain comes from the species named", "settings": "Homo sapiens", "values": [
      {"variant": "KRRTSFTPQALEILNAHFEKNMHPSGQEMTEIAEKLNYDREVVRVWFCNKRQALK", "abundance fitness": "-0.022 ± 0.13"},
      {"variant": "KRRTSFTPQALEILNAHFEKNEHPSGQEMTEIAEKLNYDREVVRVWFCNKRQALK", "abundance fitness": "-0.098 ± 0.19"},
      {"variant": "KRRTSFTPQALEILNAHFEKNKHPSGQEMTEIAEKLNYDREVVRVWFCNKRQALK", "abundance fitness": "-0.089 ± 0.11"},
      {"variant": "KRRTSFTPQALEILNAHFEKNAHPSGQEMTEIAEKLNYDREVVRVWFCNKRQALK", "abundance fitness": "0.006 ± 0.092"},
      {"variant": "KRRTSFTPQALEILNAHFEKNGHPSGQEMTEIAEKLNYDREVVRVWFCNKRQALK", "abundance fitness": "0.002 ± 0.067"},
      {"variant": "KRRTSFTPQALEILNAHFEKNSHPSGQEMTEIAEKLNYDREVVRVWFCNKRQALK", "abundance fitness": "0.003 ± 0.073"},
      {"variant": "KRRTSFTPQALEILNAHFEKNLHPSGQEMTEIAEKLNYDREVVRVWFCNKRQALK", "abundance fitness": "-0.017 ± 0.077"},
      {"variant": "KRRTSFTPQALEILNAHFEKNVHPSGQEMTEIAEKLNYDREVVRVWFCNKRQALK", "abundance fitness": "0.105 ± 0.11"},
      {"variant": "KRRTSFTPQALEILNAHFEKNHHPSGQEMTEIAEKLNYDREVVRVWFCNKRQALK", "abundance fitness": "0.134 ± 0.14"},
      {"variant": "KRRTSFTPQALEILNAHFEKNDHPSGQEMTEIAEKLNYDREVVRVWFCNKRQALK", "abundance fitness": "-0.037 ± 0.12"},
      {"variant": "KRRTSFTPQALEILNAHFEKNQHPSGQEMTEIAEKLNYDREVVRVWFCNKRQALK", "abundance fitness": "0.084 ± 0.14"},
      {"variant": "KRRTSFTPQALEILNAHFEKNFHPSGQEMTEIAEKLNYDREVVRVWFCNKRQALK", "abundance fitness": "-0.198 ± 0.13"},
      {"variant": "KRRTSFTPQALEILNAHFEKNRHPSGQEMTEIAEKLNYDREVVRVWFCNKRQALK", "abundance fitness": "0.005 ± 0.065"},
      {"variant": "KRRTSFTPQALEILNAHFEKNNHPSGQEMTEIAEKLNYDREVVRVWFCNKRQALK", "abundance fitness": "0.049 ± 0.12"},
      {"variant": "KRRTSFTPQALEILNAHFEKNPHPSGQEMTEIAEKLNYDREVVRVWFCNKRQALK", "abundance fitness": "0.016 ± 0.1"},
      {"variant": "KRRTSFTPQALEILNAHFEKNIHPSGQEMTEIAEKLNYDREVVRVWFCNKRQALK", "abundance fitness": "-0.103 ± 0.11"},
      {"variant": "KRRTSFTPQALEILNAHFEKNWHPSGQEMTEIAEKLNYDREVVRVWFCNKRQALK", "abundance fitness": "-0.176 ± 0.073"},
      {"variant": "KRRTSFTPQALEILNAHFEKNYHPSGQEMTEIAEKLNYDREVVRVWFCNKRQALK", "abundance fitness": "-0.201 ± 0.13"},
      {"variant": "KRRTSFTPQALEILNAHFECNTHPSGQEMTEIAEKLNYDREVVRVWFCNKRQALK", "abundance fitness": "-0.289 ± 0.086"},
      {"variant": "KRRTSFTPQALEILNAHFEYNTHPSGQEMTEIAEKLNYDREVVRVWFCNKRQALK", "abundance fitness": "-0.224 ± 0.12"},
      {"variant": "KRRTSFTPQALEILNAHFEENTHPSGQEMTEIAEKLNYDREVVRVWFCNKRQALK", "abundance fitness": "-0.007 ± 0.099"},
      {"variant": "KRRTSFTPQALEILNAHFEVNTHPSGQEMTEIAEKLNYDREVVRVWFCNKRQALK", "abundance fitness": "-0.131 ± 0.074"},
      {"variant": "KRRTSFTPQALEILNAHFEHNTHPSGQEMTEIAEKLNYDREVVRVWFCNKRQALK", "abundance fitness": "-0.239 ± 0.16"},
      {"variant": "KRRTSFTPQALEILNAHFEINTHPSGQEMTEIAEKLNYDREVVRVWFCNKRQALK", "abundance fitness": "-0.245 ± 0.14"},
      {"variant": "KRRTSFTPQALEILNAHFENNTHPSGQEMTEIAEKLNYDREVVRVWFCNKRQALK", "abundance fitness": "-0.227 ± 0.18"},
      {"variant": "KRRTSFTPQALEILNAHFEPNTHPSGQEMTEIAEKLNYDREVVRVWFCNKRQALK", "abundance fitness": "-0.936 ± 0.16"},
      {"variant": "KRRTSFTPQALEILNAHFEWNTHPSGQEMTEIAEKLNYDREVVRVWFCNKRQALK", "abundance fitness": "-0.303 ± 0.084"},
      {"variant": "KRRTSFTPQALEILNAHFERNTHPSGQEMTEIAEKLNYDREVVRVWFCNKRQALK", "abundance fitness": "-0.017 ± 0.061"},
      {"variant": "KRRTSFTPQALEILNAHFEDNTHPSGQEMTEIAEKLNYDREVVRVWFCNKRQALK", "abundance fitness": "-0.291 ± 0.13"},
      {"variant": "KRRTSFTPQALEILNAHFEGNTHPSGQEMTEIAEKLNYDREVVRVWFCNKRQALK", "abundance fitness": "-0.129 ± 0.061"},
      {"variant": "KRRTSFTPQALEILNAHFEANTHPSGQEMTEIAEKLNYDREVVRVWFCNKRQALK", "abundance fitness": "-0.064 ± 0.073"},
      {"variant": "KRRTSFTPQALEILNAHFESNTHPSGQEMTEIAEKLNYDREVVRVWFCNKRQALK", "abundance fitness": "-0.088 ± 0.075"},
      {"variant": "KRRTSFTPQALEILNAHFEQNTHPSGQEMTEIAEKLNYDREVVRVWFCNKRQALK", "abundance fitness": "-0.17 ± 0.13"},
      {"variant": "KRRTSFTPQALEILNAHFETNTHPSGQEMTEIAEKLNYDREVVRVWFCNKRQALK", "abundance fitness": "-0.057 ± 0.088"},
      {"variant": "KRRTSFTPQALEILNAHFELNTHPSGQEMTEIAEKLNYDREVVRVWFCNKRQALK", "abundance fitness": "-0.144 ± 0.074"},
      {"variant": "KRRTSFTPQALEILNAHFEFNTHPSGQEMTEIAEKLNYDREVVRVWFCNKRQALK", "abundance fitness": "-0.421 ± 0.14"},
      {"variant": "KRRTSFTPQALEILNAHFEMNTHPSGQEMTEIAEKLNYDREVVRVWFCNKRQALK", "abundance fitness": "-0.02 ± 0.13"},
      {"variant": "KRRTSFTPQALEILNAHFEKNTYPSGQEMTEIAEKLNYDREVVRVWFCNKRQALK", "abundance fitness": "-0.257 ± 0.15"},
      {"variant": "KRRTSFTPQALEILNAHFEKNTRPSGQEMTEIAEKLNYDREVVRVWFCNKRQALK", "abundance fitness": "0.011 ± 0.07"},
      {"variant": "KRRTSFTPQALEILNAHFEKNTSPSGQEMTEIAEKLNYDREVVRVWFCNKRQALK", "abundance fitness": "0.036 ± 0.12"},
      {"variant": "KRRTSFTPQALEILNAHFEKNTNPSGQEMTEIAEKLNYDREVVRVWFCNKRQALK", "abundance fitness": "-0.027 ± 0.16"},
      {"variant": "KRRTSFTPQALEILNAHFEKNTQPSGQEMTEIAEKLNYDREVVRVWFCNKRQALK", "abundance fitness": "-0.029 ± 0.13"},
      {"variant": "KRRTSFTPQALEILNAHFEKNTGPSGQEMTEIAEKLNYDREVVRVWFCNKRQALK", "abundance fitness": "-0.217 ± 0.063"},
      {"variant": "KRRTSFTPQALEILNAHFEKNTIPSGQEMTEIAEKLNYDREVVRVWFCNKRQALK", "abundance fitness": "-0.169 ± 0.2"},
      {"variant": "KRRTSFTPQALEILNAHFEKNTMPSGQEMTEIAEKLNYDREVVRVWFCNKRQALK", "abundance fitness": "-0.275 ± 0.15"},
      {"variant": "KRRTSFTPQALEILNAHFEKNTKPSGQEMTEIAEKLNYDREVVRVWFCNKRQALK", "abundance fitness": "-0.034 ± 0.12"},
      {"variant": "KRRTSFTPQALEILNAHFEKNTCPSGQEMTEIAEKLNYDREVVRVWFCNKRQALK", "abundance fitness": "0.018 ± 0.089"},
      {"variant": "KRRTSFTPQALEILNAHFEKNTWPSGQEMTEIAEKLNYDREVVRVWFCNKRQALK", "abundance fitness": "-0.124 ± 0.11"}
    ]}
  ]
}
